{"source": "paper doi:10.1101/2024.07.11.602936", "about": "(bioRxiv, 2024)", "proteins": {"B1": {"name": "glutamine synthetase (GS) (enzyme)", "chain": "MATSASSHLNKGIKQMYMNLPQGEKIQLMYIWVDGTGEGLRCKTRTLDCDPKCVEELPEWNFDGSSTFQSEGSNSDMYLHPVAMFRDPFRRDPNKLVFCEVFKYNRKPAETNLRHSCKRIMDMVSSQHPWFGMEQEYTLMGTDGHPFGWPSNGFPGPQGPYYCGVGADKAYGRDIVEAHYRACLYAGIKITGTNAEVMPAQWEFQIGPCEGIRMGDHLWVARFILHRVCEDFGVIATFDPKPIPGNWNGAGCHTNFSTKAMREENGLRCIEEAIDKLSKRHQYHIRAYDPKGGLDNARRLTGFHETSNINDFSAGVANRSASIRIPRIVGQEKKGYFEDRRPSANCDPYAVTEAIVRTCLLNETGDEPFQYKN"}}, "molecular_target": "the molecule itself", "assay": "cryo-EM structure"}
{"protein": "B1", "values": [{"measurement": "stoichiometry N", "result": 10}]}
